{"source": "paper PMC11844651", "about": "“How RAG1/2 evolved from ancestral transposases to initiate V(D)J recombination without transposition” (Research Square, 2025)", "molecular_target": "T1, mouse RAG1 (aa 265–1040) (mouse, UniProt P15919 265-1040)", "T1 sequence (looked up)": "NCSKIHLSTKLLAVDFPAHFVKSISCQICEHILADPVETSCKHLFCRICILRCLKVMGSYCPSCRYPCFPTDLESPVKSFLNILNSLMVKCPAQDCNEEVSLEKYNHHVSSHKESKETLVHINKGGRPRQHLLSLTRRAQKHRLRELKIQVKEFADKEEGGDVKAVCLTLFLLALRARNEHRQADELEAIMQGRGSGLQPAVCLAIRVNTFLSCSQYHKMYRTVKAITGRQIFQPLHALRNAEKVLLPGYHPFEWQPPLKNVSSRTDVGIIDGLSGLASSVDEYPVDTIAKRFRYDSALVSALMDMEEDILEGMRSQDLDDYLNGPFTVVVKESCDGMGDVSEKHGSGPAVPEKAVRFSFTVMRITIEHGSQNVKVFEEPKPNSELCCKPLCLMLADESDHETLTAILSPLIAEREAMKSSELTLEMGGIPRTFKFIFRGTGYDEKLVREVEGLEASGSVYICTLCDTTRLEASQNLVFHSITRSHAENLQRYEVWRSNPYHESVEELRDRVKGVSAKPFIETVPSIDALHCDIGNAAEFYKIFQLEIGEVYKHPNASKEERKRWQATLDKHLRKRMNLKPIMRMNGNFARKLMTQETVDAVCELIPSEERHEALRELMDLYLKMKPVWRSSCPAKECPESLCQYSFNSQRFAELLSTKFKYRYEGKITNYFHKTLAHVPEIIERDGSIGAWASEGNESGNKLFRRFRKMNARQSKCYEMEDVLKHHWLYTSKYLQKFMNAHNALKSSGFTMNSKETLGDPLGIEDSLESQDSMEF", "assay": "cell-based or functional assay", "data": [{"binder": "mouse T490A RAG2 (aa 1–520) (natural protein, UniProt P21784 1-520, looked up) MSLQMVTVGHNIALIQPGFSLMNFDGQVFFFGQKGWPKRSCPTGVFHFDIKQNHLKLKPAIFSKDSCYLPPLRYPATCSYKGSIDSDKHQYIIHGGKTPNNELSDKIYIMSVACKNNKKVTFRCTEKDLVGDVPEPRYGHSIDVVYSRGKSMGVLFGGRSYMPSTQRTTEKWNSVADCLPHVFLIDFEFGCATSYILPELQDGLSFHVSIARNDTVYILGGHSLASNIRPANLYRIRVDLPLGTPAVNCTVLPGGISVSSAILTQTNNDEFVIVGGYQLENQKRMVCSLVSLGDNTIEISEMETPDWTSDIKHSKIWFGSNMGNGTIFLGIPGDNKQAMSEAFYFYTLRCSEEDLSEDQKIVSNSQTSTEDPGDSTPFEDSEEFCFSAEATSFDGDDEFDTYNEDDEDDESVTGYWITCCPTCDVDINTWVPFYSTELNKPAMIYCSHGDGHWVHAQCMDLEERTLIHLSEGSNKYYCNEHVQIARALQAPKRNPPLQKPPMKSLHKKGSGKVLTPAKKS", "values": [{"measurement": "RSS DNA hairpinning (pre-nicked RSS substrates) with the long (21 aa) H3K4me3 peptide (1 μM) against no peptide", "value": "< 2", "unit": "fold"}, {"measurement": "transposition of SEC into supercoiled pUC19 (double-ended joint product) with the long (21 aa) H3K4me3 peptide (20 μM) against no peptide", "value": 22, "unit": "fold"}]}]}
